No end group written: not given here.
What was measured:
[1] = system: human embryonic kidney cells from cell line HEK293; experiment: incubation with HEK293 cells, cell viability; assay type: cell-based
Method: (§1) To investigate toxicity of the polymer-peptide product, the polymer-peptide product was dissolved in a simulated physiological environment comprising 10% prenatal bovine serum in a phosphate-buffered saline solution. […] The polymer-peptide products was also incubated with human embryonic kidney cells from cell line HEK293 for 24 hours, after which more than 90% cell viability was observed.

[2] = dissolution in simulated physiological environment (10% prenatal bovine serum in phosphate-buffered saline), precipitation/aggregation; assay type: physicochemical; settings: over 24 hours
Method: as §1

hemolysis = assay type: cell-based; settings: doses up to 1000 mg/L
Method: as §1

| Substance | cell viability ([1]; HEK293, dose of 50 mg/L) | precipitation or aggregation in solution [2] | cell viability ([1]; HEK293, 200 mg/L, similar incubation period) | cell viability ([1]; HEK293, incubated 24 hours, dose not stated) | hemolysis (hemolysis) |
| --- | --- | --- | --- | --- | --- |
| peptide: thiol-containing amphiphilic alpha-helical peptide SEQ. ID: NO: 1-NH2 (CLLKKLLKKC-NH2; cysteine pairing not given here) [reference compound] | below 70% | – | – | – | – |
| polymer-peptide product: peptide SEQ. ID: NO: 1-NH2 attached to water-soluble polythioaminal polymer 4a (CLLKKLLKKC-NH2; cysteine pairing not given here; also: attached to polythioaminal polymer 4a) | – | No precipitation or aggregation was observed | more than 80% | more than 90% | No hemolysis was observed |

Source: patent publication US10702610B2, “Method of making sulfur-containing polymers from hexahydrotriazine and dithiol precursors” (International Business Machines Corporation, priority 2015, dated 2020)
